Assay [1] addresses 狂犬疫苗 (rabies vaccine used as ELISA coating antigen). The experiment in a line: ELISA, rabies vaccine coated on plate, HRP goat anti-human IgG.
The target in assay [2] is 狂犬病毒(CVS株). The experiment in a line: cell-based or functional assay.
For assay [3], the target named is 狂犬病毒G蛋白 (rabies virus G protein, RVG) (rabies virus (strain not stated)).

The source of these data is patent publication CN103910796A.

B1: 全人源的单克隆的抗狂犬病毒中和抗体TRN006 (antibody, V domains shown)
VH: QVQLQESGPGLVKPSETLSLTCTVSGGSISSTTSYWGWIRQPPGKGLEWIGSIYYSGSTYYNPSLKSRVTISVDTSKNQFSLKLRSVTAADTAVYFCARHSVTAAYFNYWGQGTLVSVSS
VL: DIQMTQSPSSVSASVGDRVTITCRASEGISSWLAWYQQKPGRAPKVLIHGASSLQSGVPSRFSGSGSGADFTLSISSLQPEDFATYYCQQANSFPYTFGQGTKLEIKR
In assay [1], B1 returned an antibody concentration at which binding is still seen of 0.0024 µg/mL and a dilution fold at which binding is still seen of 50000 fold. Moreover, the 保护效价 (RFFIT, Reed & Muench法) in assay [2] is 3040 IU/ml. Further, in assay [3], the fold of MFI over negative control antibody turned out to be 300 fold and the fold of MFI over standard serum was 17 fold.
